Values joined by “and” are separate entries in the source; they are usually repeats but may differ in a detail not shown here. Equal entries are not always repeated. Each block holds one substance with its values, some of them ahead of it.
Tests used:
[1] = molecular target: Histone H3 (Homo sapiens) (UniProt P68431); details: cited from earlier work
[2] = molecular target: Histone H3 H3 tail peptide (Homo sapiens) (UniProt P68431); details: cited from earlier work
[3] = molecular target: Histone H3 1-15 (Homo sapiens) (UniProt P68431); assay: ITC; details: cited from earlier work
[4] = molecular target: ATRXADD-His (His-tagged ATRX ADD domain) (UniProt P46100); assay: AlphaScreen or HTRF; competition, Ni-NTA kit: ATRXADD-His (625 nM), H3_(1-15)K9me3-biotin (94 nM), 20 μg/mL of each bead, unlabeled peptide added; HEPES buffer (50 mM HEPES, 100 mM NaCl, 0.1% Triton X-100, 0.1% BSA); 1 hour, room temperature, dark
[5] = molecular target: ATRXADD-His (His-tagged ATRX ADD domain) (UniProt P46100); assay: AlphaScreen or HTRF; direct signal, Nickel Chelate (Ni-NTA) kit: H3_(1-15)K9me3-biotin on streptavidin beads, ATRXADD-His on Ni-NTA beads; 20 μg/mL of each bead

Substance: ATRX ADD (from UniProt P46100)
Kd [1]: > 80 µM
Kd [2]: > 80 µM
Kd [3]: 0.385 µM and 2.7 µM

IC50 [4]: > 10 µM
Substance: H3_(1-15)K9me0 peptide (from UniProt P68431 2-16)

AlphaScreen signal [5]: 1.25e+06
Substance: H3_(1-15)K9me3-biotin peptide (biotin label at the C-terminus) (from UniProt P68431 2-16)

IC50 [4]: > 10 µM
Substance: H3_(1-15)K9me1 peptide (from UniProt P68431 2-16)

— publication PMC7181051, “Probing the Protein-Protein Interaction between the ATRXADD Domain and the Histone H3 Tail” (Molecules, 2020)
